Target: 4-1BB receptor (human) (UniProt Q07011)
Assay: ELISA; antigen (4-1BB 0.5 µg/mL in carbonate buffer; BSA or S100P for cross-reactivity) adsorbed on the plate, 37 °C 1 h; blocked with 1% milk powder; culture fluid with VHH mixed 1:1 with 2% milk powder, 1 h 37 °C; detected by 9E10 anti-myc and an HRP conjugate, TMB, 450 nm; 2 technical …

UniProt Q07011, sequence (Q07011 24-255): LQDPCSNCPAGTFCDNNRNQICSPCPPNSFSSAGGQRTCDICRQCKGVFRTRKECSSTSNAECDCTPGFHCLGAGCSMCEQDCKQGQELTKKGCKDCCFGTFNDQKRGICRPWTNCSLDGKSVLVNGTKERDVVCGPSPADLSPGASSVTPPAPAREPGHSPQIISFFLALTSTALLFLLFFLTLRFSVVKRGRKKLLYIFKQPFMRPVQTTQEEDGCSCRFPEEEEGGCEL

ELISA signal intensity, fold lower than the positive control: 10 fold
B1: VHH_11 (VHH)
VHH: QVQLVESGGGLVQPGGSLRLSCAASGYSYYYYSMGWFRQAPGQGTEFVAAISSYYYSSYYADSVKGRFTISRDNSKNTLYLQMNSLRAEDTAVYYCAASYYSGSYYSGFDYWGQGTQVTVS

From paper PMC12259950
